Reference: patent US20030224458A1 (published 2003)
Ends that are not written are not given here.

B1: Peptide modulator of HGPRBMY23 FVGTFDWQSYPLLSF (peptide)
peptide: FVGTFDWQSYPLLSF
modifications: not fully specified (N-terminus, C-terminus)
notes: Synthetic versions are described as N-acetylated peptides made on Knorr amide resin (C-terminal amide)
B2: Peptide modulator of HGPRBMY23 LFASSDWSSFPVLVF (peptide)
peptide: LFASSDWSSFPVLVF
modifications: also: synthetic versions N-acetylated, C-terminal amide, also phage-displayed
notes: as for B1
B3: Peptide modulator of HGPRBMY23 SRVSGAKVWFLSNWS (peptide)
peptide: SRVSGAKVWFLSNWS
modifications: also: synthetic versions N-acetylated, C-terminal amide, also phage-displayed
notes: as for B1

Each binder was assayed against T1, HGPRBMY23 polypeptide (novel human G-protein coupled receptor) (human, UniProt Q96P68 1-337) (assay: phage display panning on CHO-K1 cells transfected with HGPRBMY23, after preadsorption on integrin and parental cells).
T1 construct: For phage panning it was expressed on CHO-K1 cells from the pcDNA3.1 Hygro-HGPRBMY23 construct; For immunohistochemistry it was the native protein in paraffin-embedded, formalin-fixed tissue sections; also called GPCR92
T1 sequence (Q96P68 whole entry): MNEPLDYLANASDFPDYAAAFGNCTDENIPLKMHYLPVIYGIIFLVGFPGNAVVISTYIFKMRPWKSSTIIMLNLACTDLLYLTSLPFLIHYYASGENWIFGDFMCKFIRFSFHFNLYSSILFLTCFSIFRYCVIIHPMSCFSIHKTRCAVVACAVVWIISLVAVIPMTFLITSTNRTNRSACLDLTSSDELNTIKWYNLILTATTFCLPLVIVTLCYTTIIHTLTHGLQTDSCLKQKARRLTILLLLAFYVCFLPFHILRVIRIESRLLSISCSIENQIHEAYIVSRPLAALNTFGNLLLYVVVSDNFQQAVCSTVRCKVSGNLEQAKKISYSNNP
Description: Typically, this corresponded to one P175 flask with near-confluent growth. A similar number of parental cells were grown for preadsorption. One day prior to panning, two or three 96-well Immulon plates were coated integrin. Plates were coated overnight at 4° C. in NaHCO₃, pH 9.5, with ˜50 ng of αVβ3 integrin (Chemicon; Cat. #CC1020) per well per library.
On the day of panning, growth medium was discarded and cells were washed with 10 ml PBS by allowing the buffer to flow over the cells. The PBS was removed and 10 ml Tris-EDTA detaching buffer (Gibco Cat. #13150-016; no trypsin) was added for 2 min. Plates were tapped and/or pipetted up and down to detach cells. This was done quickly to minimize the exposure of the cells to this reagent. Cells were pelleted by centrifugation at 3K, and then washed with 20 ml PBS. Cells were resuspended cells in PBS with 2% milk blocking agent plus protease inhibitor (EDTA-free; Roche Cat. #1 873 580). For each library, cell suspensions of ˜500 ul were used. Cells were blocked for 30-60 min with gentle rocking at room temperature. The integrin-coated wells were washed 3× in PBST, then blocked with 2% BSA in PBS for 30 min or more. To preadsorb against integrin, input phage was added to the integrin-coated wells, and incubated for 30 min or more.
At this stage, the blocked parental cells were divided into the required number of aliquots (500 ul aliquot/library). The phage supernatants were added from the integrin-preadsorption step. Preadsorption against the parental cells was carried out for 30 min or more with gentle rocking. The blocked transfected cells were divided into the required number of aliquots (500 ul aliquot per library). The transfected cells were pelleted, and the supernatant was discarded. The phage supernatants from the two preadsorption steps were added, and cells were incubated with gentle rocking for 2 h or more. Cells were washed 6-8×with PBST at 5 min intervals. Each wash was performed by gently pipetting the cells up and down, and cells were centrifuged at low speed. […]

binding result | Binder
binds | B1
binds | B2
binds | B3
